The results in this text go back to patent US20190161555A1 (ALLIGATOR BIOSCIENCE, published 2019).

One may read the Kd as the free concentration of one partner at which half of the binding sites on the other are occupied at equilibrium, for simple one-to-one binding. Lower therefore signals higher affinity. What is called koff is the first-order rate constant of dissociation. A word on the kon: it is the rate constant with which the complex forms. As a reminder, the EC50 (read off the curve) is the concentration at which the effect is half-maximal. A high value points to lower potency in that assay. A word on the EC50: it is the concentration needed to bring the measured effect to its halfway point.

Where a chain is given by its changes, count along the chain named. Bounds are passed on as bounds.

Assay [1] deals with T1, Human OX40 (R&D Systems, 3388-OX) (human, UniProt P43489 29-216).
T1 construct: bought; also called OX40-Fc; Human OX40 (R&D systems, #3358_OX)
T1 sequence (looked up): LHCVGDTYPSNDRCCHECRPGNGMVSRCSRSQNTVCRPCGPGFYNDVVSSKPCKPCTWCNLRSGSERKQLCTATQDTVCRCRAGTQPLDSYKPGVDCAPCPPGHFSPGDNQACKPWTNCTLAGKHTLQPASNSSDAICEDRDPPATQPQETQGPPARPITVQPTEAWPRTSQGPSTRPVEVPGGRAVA
Briefly: SPR Biacore, human OX40 amine-coupled on CM5, antibody injected, 1:1 Langmuir. The protocol: Human OX40 (R&D systems, #3358_OX) was immobilized to the Biacore™ sensor chip, CM5, using conventional amine coupling. The tested antibodies and controls (serially diluted 1/3 or 1/2 100-2 nM) were analyzed for binding in HBS-P (GE, #BR-1003-68) at a flow rate of […]. The association was followed for 3 minutes and the dissociation for 20 minutes. Regeneration was performed twice using 50 mM NaOH for 60 seconds. The kinetic parameters and the affinity constants were calculated using 1:1 Langmuir model with drifting baseline. […] The kinetic parameters and the affinity constants were calculated using BIAevaluation 4.1 software.
(In general: SPR reads the build-up and loss of mass on a sensor chip optically.)

The target of another assay is T2, murine OX40 (murine, UniProt P47741 20-211, limits assumed).
T2 construct: also called mouse OX40
T2 sequence (looked up): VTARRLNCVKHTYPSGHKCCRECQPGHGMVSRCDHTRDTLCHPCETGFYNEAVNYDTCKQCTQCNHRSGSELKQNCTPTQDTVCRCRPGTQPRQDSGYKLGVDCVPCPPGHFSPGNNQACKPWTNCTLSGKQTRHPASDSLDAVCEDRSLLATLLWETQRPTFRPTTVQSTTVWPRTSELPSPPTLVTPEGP
The assay is described as follows: ELISA.

The target in a further assay is CD137 (R&D Systems) (UniProt Q07011 24-186, limits assumed). Briefly: ELISA, CD137 coated. On the procedure: (§1) ELISA plates were coated with human OX40 (R&D Systems, 3388-OX), CD40 (Ancell), or CD137 (R&D Systems) at 0.1 or 0.5 μg/ml. The ELISA plates were washed with PBST and then blocked with PBST+2% BSA for 1 h at room temperature and then washed again with PBST. The antibodies were added in dilution series to the ELISA plates for 1 h at room temperature and then washed with PBST. Binding was detected using goat anti human kappa light chain HRP, incubated for 1 h at room temperature. SuperSignal Pico Luminescent was used as substrate and luminescence was measured using Fluostar Optima.
Sequence of CD137 (R&D Systems) (Q07011 24-186 limits assumed): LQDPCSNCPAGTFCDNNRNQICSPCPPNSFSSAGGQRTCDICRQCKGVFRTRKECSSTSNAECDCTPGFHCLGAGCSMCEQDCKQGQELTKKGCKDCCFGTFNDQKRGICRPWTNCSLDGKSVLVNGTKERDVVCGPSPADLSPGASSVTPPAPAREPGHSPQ
(In an ELISA, binding on a coated surface is turned into a signal by an enzyme label.)

Assay [2] has as its target T3, Construct 84: full length OX40 (human, UniProt P43489 29-277).
T3 construct: whole, on cells
T3 sequence (looked up): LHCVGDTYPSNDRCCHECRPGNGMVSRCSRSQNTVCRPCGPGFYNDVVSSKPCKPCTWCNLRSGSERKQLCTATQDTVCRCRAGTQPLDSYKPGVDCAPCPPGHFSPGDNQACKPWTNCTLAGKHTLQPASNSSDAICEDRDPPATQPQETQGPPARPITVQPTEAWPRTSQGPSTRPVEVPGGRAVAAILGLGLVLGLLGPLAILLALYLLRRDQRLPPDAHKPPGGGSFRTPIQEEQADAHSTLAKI
Briefly: flow cytometry, 293-F cells transfected with the construct. The protocol: The transfected cells were incubated with human OX40 antibodies, human OX40L (hOX40L, RnD Systems), mouse OX40L (mOX40L, RnD Systems) and controls for 30 min 4° C. and then detected with a-huIgG-PE (Jackson Immunoresearch) 30 min 4° C. Cells were analyzed with FACS Verse (BD Biosciences). Binding to the different chimeric constructs were calculated as relative (mean fluorescence intensity) MFI compared to the binding of the isotype control.
For orientation: A flow cytometer gives signals particle by particle.

A further assay has as its target CD40 (Ancell) (UniProt P25942 21-193, limits assumed). Briefly: ELISA, CD40 coated. On the procedure: as §1
In assay [3] the target is T4, human OX40 overexpressed on CHO cells (human, UniProt P43489 29-214; P25942 194-277).
T4 construct: extracellular domain;domain: transmembrane and intracellular part; also called hOX40; huOX40 (CHO)
T4 sequence (looked up): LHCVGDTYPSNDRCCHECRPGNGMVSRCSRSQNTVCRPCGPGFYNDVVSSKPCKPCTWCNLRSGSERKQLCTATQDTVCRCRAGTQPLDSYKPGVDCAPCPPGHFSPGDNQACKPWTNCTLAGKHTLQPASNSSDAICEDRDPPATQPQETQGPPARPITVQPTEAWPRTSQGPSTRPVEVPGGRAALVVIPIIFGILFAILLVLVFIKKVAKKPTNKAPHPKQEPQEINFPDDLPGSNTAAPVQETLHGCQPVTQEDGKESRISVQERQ
The assay is described as follows: flow cytometry on CHO cells overexpressing human OX40, anti-huIgG-PE detection, MFI. The protocol:
The extracellular part of human OX40 was fused to the transmembrane and intracellular part of hCD40 and cloned into pcDNA3.0. The vector was subsequently stably transfected into CHO cells. […] For the assay, the transfected cells were incubated with the test antibodies and controls for 30 min at 4° C. and then detected with a-huIgG-PE (Jackson Immunoresearch) 30 min 4° C. Cells were analyzed by flow cytometry with FACS Verse (BD Biosciences).

Assay [4] deals with T1, Human OX40 (R&D Systems, 3388-OX). Briefly: ELISA, plates coated with human OX40, IgG. On the procedure:
as §1

Assay [5] deals with Macaca mulatta OX40 on HEK cells (Macaca mulatta; human). The assay is described as follows: flow cytometry, macOX40-HEK cells; ends of the 95% confidence interval. The protocol: For the assay, the transfected cells were incubated with the test antibodies and controls for 30 min at 4° C. and then detected with a-huIgG-PE (Jackson Immunoresearch) 30 min 4° C. Cells were analyzed by flow cytometry with FACS Verse (BD Biosciences).

Another assay deals with T5, 5T4-Fc (human, UniProt Q13641 32-355, limits assumed).
T5 construct: obtained from Peter L. Stern, University of Manchester; also called h5T4-Fc; recombinant 5T4
T5 sequence (looked up): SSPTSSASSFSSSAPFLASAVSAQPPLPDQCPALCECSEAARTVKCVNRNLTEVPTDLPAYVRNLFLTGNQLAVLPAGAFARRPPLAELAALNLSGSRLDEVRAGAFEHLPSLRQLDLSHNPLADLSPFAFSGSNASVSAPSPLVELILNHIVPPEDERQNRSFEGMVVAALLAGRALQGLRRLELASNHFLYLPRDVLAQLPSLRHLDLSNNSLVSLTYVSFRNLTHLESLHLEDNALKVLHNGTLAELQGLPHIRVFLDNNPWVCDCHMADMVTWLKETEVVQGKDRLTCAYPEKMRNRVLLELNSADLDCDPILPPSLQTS
The assay is described as follows: dual ELISA: OX40-Fc coated, detection with biotinylated 5T4-Fc and streptavidin-HRP, luminescence. The protocol:
A dual ELISA was used to detect simultaneous binding of the two targets by the bispecific antibodies. ELISA plates were coated with OX40-Fc (R&D systems, #3388-OX, 0.5 μg/ml) over night at 4° C. followed by blocking with PBST+2% bovine serum albumin (BSA) for 1 h at room temperature (RT). […] Biotinylated 5T4-Fc (0.5 μg/ml), followed by HRP-labelled streptavidin (Pierce #21126) were used for detection. Super signal ELISA Pico Chemiluminescent Substrate (Thermo Scientific, #37069) was used as substrate and luminescence was measured using FLUOstar Optima.

Sequence of CD40 (Ancell) (P25942 21-193 limits assumed): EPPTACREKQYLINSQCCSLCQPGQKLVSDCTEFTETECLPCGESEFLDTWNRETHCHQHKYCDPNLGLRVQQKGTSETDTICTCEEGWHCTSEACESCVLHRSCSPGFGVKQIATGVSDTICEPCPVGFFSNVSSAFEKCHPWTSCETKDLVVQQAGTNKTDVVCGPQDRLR

B1: 1524/1525 (antibody, V domains shown)
VH: EVQLLESGGGLVQPGGSLRLSCAASGFTFGSYYMGWVRQAPGKGLEWVSSIGSYYGYTYYADSVKGRFTISRDNSKNTLYLQMNSLRAEDTAVYYCARHDYGALDYWGQGTLVTVSS
VL: DIQMTQSPSSLSASVGDRVTITCRASQSISSYLNWYQQKPGKAPKLLIYAASSLQSGVPSRFSGSGSGTDFTLTISSLQPEDFATYYCQQYGPSGLFTFGQGTKLEIK
notes: OX40 antibody, tested as IgG
In assay [1], B1 had a Kd of 0.811 nM, a koff of 0.00139 s⁻¹ and a kon of 1.71e+06 M⁻¹ s⁻¹. Further, the binding result in the assay with murine OX40 is recorded as “no binding”. Also, the binding result in the assay with CD137 (R&D Systems) was “no binding”. Besides, the “relative MFI” value in assay [2] turned out to be 31.4 fold over isotype control. Moreover, the binding result with CD40 (Ancell) was “no binding”. The half-maximal effective concentration (EC50 (read off the curve)) in assay [3] is ~0.05 µg/mL. In addition, the EC50 in assay [4] was < 1 nM.

B2: 1166/1167 (antibody, V domains shown)
VH: EVQLLESGGGLVQPGGSLRLSCAASGFTFGGYYMSWVRQAPGKGLEWVSAISGSGGSTYYADSVKGRFTISRDNSKNTLYLQMNSLRAEDTAVYYCARYDYASMDYWGQGTLVTVSS
VL: B1 VL with G92Y, P93W, S94Y, F97S
For the molecule B2, the binding result in the assay with murine OX40 was “no binding”; with CD137 (R&D Systems), “no binding”; with CD40 (Ancell), “no binding”; in the assay with 5T4-Fc, “no binding (tested: about 80 nM (log[conc ab] 1.9))”. This molecule came in with an EC50 in assay [5] of 0.16 to 0.242 µg/mL.

B3: 1164/1135 (antibody, V domains shown)
VH: EVQLLESGGGLVQPGGSLRLSCAASGFTFYGSSMYWVRQAPGKGLEWVSGIYSSGGYTSYADSVKGRFTISRDNSKNTLYLQMNSLRAEDTAVYYCARGVPHGYFDYWGQGTLVTVSS
VL: not shown
notes: OX40 antibody, tested as IgG
Turning to B3, the equilibrium dissociation constant (Kd) in assay [1] amounted to 0.308 nM. The off-rate (koff) in assay [1] stood at 7.73e-05 s⁻¹. The kon in assay [1] was found to be 251000 M⁻¹ s⁻¹. Besides, the binding result in the assay with murine OX40, in the assay with CD137 (R&D Systems) and with CD40 (Ancell) was “no binding” throughout. In addition, the “relative MFI” value in assay [2] amounted to 27.5 fold over isotype control. The “EC50 (read off the curve)” value in assay [3] is ~0.01 µg/mL. The concentration giving a half-maximal response (EC50) in [4] was < 1 nM.
